# Experiments:
# [1] = system: tyrosine phosphorylation of STAT proteins in T47-D cells; test: Tyrosine phosphorylation of STAT proteins in T47-D cells (Example 10); type: cell-based, human
# Procedure: Tyrosine Phosphorylation of STAT Proteins in T47-D cells. This assay is designed to examine the effects of HPRL and hPRL-G129R on signal transduction using T47-D cells as model target cells. Briefly, T47-D cells were plated in 12-well plates. After pre-incubation in serum-free medium for 2–3 hours, cells were exposed to various concentrations of hPRL or hPRL-G129R or a combination of hPRL and hPRL-G129R in serum-free medium. The cells were incubated for 15 min at 37° C., washed once with PBS, and lysed in 200 μl lysis buffer (50 mM Tris-HCl, pH 6.8, 1% SDS, 1% β-mecaptoethanol, 0.1M DTT, 5% sucrose, 100 μM sodium orthovanadate, and 0.6% bromophenol blue). Thirty microliters of cell lysate are then subjected to 4–12.5% SDS-PAGE using the Bio-Rad Protein II system. After electrophoresis, the gels were transferred to a Hybond-ECL membrane (Amersham, Ill.) at 100 volts constant voltage for 2 hrs. Blots were incubated in a blocking solution of 4% BSA (Boehringer Mannheim, Ind.) in rinsing buffer (10 mM Tris-HCl pH 7.5, 75 mM NaCl, 0.1% Tween 20, 1 mM EDTA) for 2 hrs and subsequently washed twice with rinsing buffer for 15 min. Blots were incubated with horseradish peroxidase (HRP)-conjugated antiphosphotyrosine antibody PY20 (Amersham, Ill.) at a concentration of 0.1 μg/ml in the blocking solution for 1 hr. […] Blots were then exposed to X-ray film and developed using standard procedures (Kodak, Rochester, N.Y.).
# MCF-7 cells [2] = test: Co-culture with L-G129R cells, MCF-7; type: cell-based, human; settings: MCF-7 co-cultured with L-G129R cells; more hPRL-G129R required than for T47-D
# Source text: The co-culture experimental set-up provides a sustained presence of biologically active hPRL-G129R, thereby resulting in a maximal response in these tumor cells.
# MCF-7 cells [3] = test: TUNEL assay, MCF-7; type: cell-based, human; settings: 250 ng G129R, 24 hours
# Procedure: Cell Culture. T-47D cells obtained from ATCC were grown in RPMI 1640 (phenol red free), supplemented with 10% FBS (GIBCO BRL). BT-474 cells were grown in RPMI 1640 medium (phenol red free) supplemented with 10% FBS and ATCC recommended supplements. MCF-7 cells were grown in DMEM medium (phenol red free), supplemented with 10% FBS. The cells were grown at 37° C. in a humid atmosphere in the presence of 5% CO2. The MDA-MB-134 cells were grown in Leibovitz's L-15 medium supplemented with 20% FBS and grown in CO2 free atmosphere. The breast cancer cells were trypsinized (0.02% Trypsin—EDTA) and grown in their respective media (phenol red free) supplemented with 10% CSS (Charcoal stripped serum) for a week. Subsequently the cells were trypsinized again and plated onto an 8 chambered slide system (Lab Tek II) at a confluence of 60–70% per chamber. The next day treatments were performed on the breast cancer cells using their respective media(phenol red free), supplemented with 1% CSS. The MDA-MB-134 VI cells were grown in phenol red containing medium, but with the same serum conditions as the other breast cancer cells.
# Terminal deoxynucleotidly transferase mediated dUTP nick end labeling (TUNEL) assay. Nicks of the fragmented DNA are labeled at their 3-OH ends. The fluorescein-labeled dUTP is incorporated at the 3-OH ends by using the enzyme terminal deoxynucleotidyl transferase. […]
# [4] = system: T47D human breast cancer cells; test: Cell proliferation assay, cell counting; type: cell-based; settings: FIGS. 5A-B
# Procedure: Cell proliferation assays. hPRLA was tested for its ability to inhibit breast cancer cell proliferation in tissue culture. The human breast cancer cells were grown in corresponding culture media according to ATCC recommendations. Cells were maintained at 37° C. in a humidified atmosphere of 5% CO2 in air. The assay conditions were essentially as described by Ginsburg and Vonderharr (1995, Cancer Res. 55:2591–2595). For individual growth experiments, cells were plated in 12 well culture plates at a density of approximately 2×10^4 /ml, 1 ml/ well. Cells were then allowed to attach for one day (T-47D, MCF-7, HTB19, and HTB20 cells, except for HTB 123, which is a suspension cells), then the overlying media was removed and changed to serum-free conditions with media containing ITS^+ (insulin-transferring-selenium-BSA-linoleic acid culture supplement; Collaborative Research Bedford, Mass.). Varying concentrations of hPRL alone or in combination with hPRLA were introduced. After an additional three days in culture, cells were harvested after brief trypsinization and counted in a cell counter.
molecule,measurement,setting,value
hPRL-G129R: variant of human prolactin having a substitution of the glycine at position 129 with an arginine residue; prolactin receptor antagonist (protein) LPICPGGAARCQVTLRDLFDRAVVLSHYIHNLSSEMFSEFDKRYTHGRGFITKAINSCHTSSLATPEDKEQAQQMNQKDFLSLIVSILRSWNEPLYHLVTEVRGMQEAPEAILSKAVEIEEQTKRLLERMELIVSQVHPETKENEIYPVWSGLPSLQMADEESRLSAYYNLLHCLRRDSHKIDNYLKLLKCRIIHNNNC,inhibition of STAT protein phosphorylation induced by hPRL,"[1]; 5:1 ratio (500 ng/ml hPRL-G129R, 100 ng/ml hPRL)",completely inhibited
same,stimulating STAT protein phosphorylation,"[1]; T47-D cells, hPRL-G129R alone (100 ng/ml, FIG. 13)",not active
same,block of signal transduction (STAT phosphorylation) induced by hPRL,[1]; added together with hPRL,block the signal transduction induced by hPRL in a dose dependent manner
same,inhibition of cell proliferation in co-culture,MCF-7 cells [2],Complete inhibition
same,induction of apoptosis DNA fragmentation,MCF-7 cells [3],induced apoptosis
same,proliferation of T47D cells relative to untreated control cultures,[4],comparable inhibitory effect
